Experimental data published in patent US12410234B2, “Compositions and methods for retrieving tumor-related antibodies and antigens” (THE TRUSTEES OF THE UNIVERSITY OF PENNSYLVANIA, priority 2018, dated 2025).

How the values were obtained:
[1] = system: CD13 knockout THP-1 cells; test: Flow analysis of Nb binding to CD13 knockout THP-1 cells; set-up: species or system human; details: flow cytometry
Excerpt: (§1) FIGS. 4A-4F are series of images and graphs illustrating the identification of CD13 as a target to kill AML cells by CAR T cells. FIG. 4A: Experiment schema: About 3000 cell membrane protein cDNAs were purified and transfected into HEK293T cells separately, followed by flow analysis with the nanobodies expressing phage and FITC-labeled secondary antibody against phage M13 protein. FIG. 4B: Flow analysis of nanobodies binding to the HEK293T cells with CD13 overexpression. FIG. 4C: CD13 cDNA expression confirmed in HEK293T cells by western blot. FIG. 4D: Western blot to confirm the gRNA/CRISPR guided CD13 knockout effect in THP-1 cells. Three independent gRNAs were transduced into THP-1 separately, followed by puromycin selection and single individual clone expansion. FIG. 4E: Flow analysis of Nb157 or Nb163 binding CD13 knockout THP-1 cells. FIG. 4F: Killing assay of Nbs CAR T cells to the THP-1 wild type (wt) or THP-1 cd13-ko.
To knockout CD13 in THP-1 cell line, LentiCRISPRv2.0 vector was applied according to the protocol (Sanjana, N. E. et al, (2014) Nature methods 11, 783-784). sgRNA targeting human CD13 were listed as below, sgCD13-1 […] (SEQ ID NO: 14), sgCD13-2 […] (SEQ ID NO: 15), […]. Plasmids were confirmed by sequencing and packaged into lentivirus, followed by infecting THP-1 cells. […]

[2] = system: patient-derived AML cells; test: Flow analysis of Nb binding to patient derived AML cells; set-up: species or system human; details: patient AML2844
Procedure: FIGS. 5A-5B: Both Nb157 and Nb163 recognized the patient derived AML cells by flow analysis. FIGS. 5C-5D: Both Nb157 and Nb163 CAR T cells specifically killed the patient derived AML cells in vitro in a dose dependent manner. […] In brief, 20 million of Patient derived AML cells were injected into NSG mouse, followed by 3 million of Nb157 CAR T cells or UTD T cells treatment. The survival of mice was monitored. Each group n=10. FIGS. 5F-5I: Patient derived AML in NSG bone marrow and spleen were monitored after Nb157 CAR T cell treatment by staining with anti-human CD45/CD3/CD33, followed by flow cytometry analysis. FIGS. 5J-5K: At the end points of each group of experiment, the mice spleens were harvested and fixed by paraformaldehyde, followed by immunofluorescence staining of the anti-human CD3/CD33 and DAPI (Nuclear).
To further determine whether the Nb157 CAR T cells can also kill the patient-derived AML cells, CD13 expression of the leukemia cells from patient AML2844 was examined. […] Thereafter, the therapeutic effect of the CAR T cells on the mice with the patient-derived AML cells was examined. To this end, the NSG mice were transplanted with the primary AML cells, followed by treatment with either control UTD or Nb157 CAR T cells.

Jurkat cells = test: Flow cytometry binding of nanobodies to Jurkat cells; set-up: species or system human
Excerpt: (§2) FIGS. 1A-1C are series of images and graphs depicting the steps for generating nanobodies that both differentially bind tumor cells and empower CAR T cells to kill the tumor cells. FIG. 1A: Flow chart of AML specific CAR compatible nanobodies in vivo screening. Llama was immunized with AML cell line THP-1. Nanobody library was generated from the llama PMBC including B cells by molecular cloning. Two rounds of conventional cell-based phage display were applied, which took T-ALL cell line Jurkat or chronic myelogenous leukemia (CML) cell line K-562 as negative absorption, followed by one round of count-selection. The resultant THP-1 specific nanobodies were inserted into a chimeric antigen receptor expressing lenti-vector to generate Nb-CAR library. Human primary T cells were transduced by the Nb-CAR library and injected into THP-1 or K562 borne NSG mice to perform the in vivo selection. Nbs that can adapt T cells to enrich in the tumor were PCR-amplified and sequenced. FIG. 1B: 10 million THP-1 cells or 5 million K562 cells were transplanted into NSG mice subcutaneously, followed by treatment of untransduced (UTD) T cells or Nb-lib-CAR T cells. 2 weeks later, Nbs from tumor infiltrated T cells were isolated and identified by PCR amplification. FIG. 1C: Top 5 frequent Nbs in the THP-1 tumor were listed and tested for their recognition to the THP-1 cells, Jurkat cells, or K-562 cells.

[3] = system: other AML cell lines like HL60, NB4, and U937; test: Recognition of other AML cell lines by THP-1 specific Nbs; assay type: binding, human
Procedure: FIG. 7 is series of a table and graphs depicting the affinity test of VHHs against variant of AML cell lines and patient derived AMLs. The four THP-1 specific Nbs were tested for their recognition to other AML cell lines. + was <0.5 log shift, ++ was <1.0 log shift, +++ was <1.5 log shift, − was no binding.

THP-1 cells [4] = test: Flow cytometry binding of nanobodies to THP-1 cells; set-up: species or system human
Excerpt: as §2, with “FIG. 1B: 10 million THP-1 cells or 5 million K562 cells were transplanted into NSG mice subcutaneously, followed by treatment of untransduced (UTD) T cells or Nb-lib-CAR T cells. 2 weeks later, Nbs from tumor infiltrated T cells were isolated and identified by PCR amplification. FIG. 1C: Top 5 frequent Nbs in the THP-1 tumor were listed and tested for their recognition to the THP-1 cells, Jurkat cells, or K-562 cells.” left out
FIGS. 6A-6H are series of images and graphs depicting that Nb switch-activated CAR T cells eradicate AML in vivo in a controllable manner. […] The engraftment volumes were monitored by measuring the lengths and widths of the tumors. […] The primary leukemia or CAR T cells in the mouse peripheral blood were monitored by staining with CD33 or CD3 fluorescence labeled antibodies.

K562 cells = test: Flow cytometry binding of nanobodies to K562 cells; set-up: species or system human
Excerpt: as §2

[5] = target: T1, human full length aminopeptidase N (APN, aka CD13) (Homo sapiens, UniProt P15144); test: Flow cytometry of nanobody phage on HEK293T cells transfected with membrane protein cDNA; assay type: binding; details: nanobody-expressing phage
T1 construct: expressed in transfected cells; host or cells: HEK293T
Excerpt: as §1
To identify the protein antigens of the isolated nanobodies, about 3000 human cell membrane protein cDNAs were prepared and transfected into HEK293T cells individually, followed by flow cytometry detection with the nanobody-expressing phage and FITC-labeled secondary antibody against phage M13 protein (FIG. 4A). […] As a confirmation, human CD13 cDNA expression was also shown by western blot (FIG. 4C). CD13 is preferentially expressed in acute myeloid blast cells.

CD13-/- THP-1 cell lines = test: Killing assay on THP-1 cd13-ko cells; assay type: cell-based, human; details: THP-1 cd13-ko vs wild type
Excerpt: as §1
Killing assays were performed as previously described (Cao, L. F. et al. (2010) Cytometry A 77, 534-545). In brief, target cells were labeled by anti-CD33 (BD) for detecting cell number with flow cytometry analysis or labeled by CellTrace Far Red for tracing cell division. Target cells were incubated with effector T cells for 16 hrs at a series of ratios. […] Quantification were calculated by either Countbright beads or volume. […]

THP-1 cells [6] = test: Killing assay of Nb157-PNE-mediated sCAR system; assay type: cell-based, human; details: sCAR T to THP-1 2:1, 16 hours
Excerpt: FIGS. 6A-6H are series of images and graphs depicting that Nb switch-activated CAR T cells eradicate AML in vivo in a controllable manner. FIGS. 6A-6B: Schematic diagram of switchable CAR T system. The Nb157 was expressed and purified by fusing with PNE, a fourteen amino acid peptide, either at N terminal or C terminal of the Nanobody. Primary human T cells were engineered by lentivirus transduction of scFv CAR that recognized PNE specifically. FIG. 6C: Test the affinity of Nb157, Nb157-N-PNE or Nb157-C-PNE against THP-1 cells by flow cytometry analysis. FIG. 6D: Killing assay of Nb157-PNE-mediated sCAR system against THP-1 cells in series of switch concentrations. The ratio of sCAR T to THP-1 was 2:1 and assay was performed after 16 hours incubation. FIG. 6E: 10 million THP-1 cells were transplanted into NSG mice subcutaneously to form the 150 mm^3 of tumors. […] The engraftment volumes were monitored by measuring the lengths and widths of the tumors. […] The primary leukemia or CAR T cells in the mouse peripheral blood were monitored by staining with CD33 or CD3 fluorescence labeled antibodies.
Killing assays were performed as previously described (Cao, L. F. et al. (2010) Cytometry A 77, 534-545). […] Quantification were calculated by either Countbright beads or volume.

BON cells = test: Flow cytometry binding of VLV or VLV-DM1 to BON cells; set-up: species or system human
Procedure: (§3) Scale bar: […]. […] Scale bar: […].

QGP1 cells = test: Flow cytometry binding of VLV or VLV-DM1 to QGP1 cells
Procedure: as §3

T1 sequence (P15144 whole entry): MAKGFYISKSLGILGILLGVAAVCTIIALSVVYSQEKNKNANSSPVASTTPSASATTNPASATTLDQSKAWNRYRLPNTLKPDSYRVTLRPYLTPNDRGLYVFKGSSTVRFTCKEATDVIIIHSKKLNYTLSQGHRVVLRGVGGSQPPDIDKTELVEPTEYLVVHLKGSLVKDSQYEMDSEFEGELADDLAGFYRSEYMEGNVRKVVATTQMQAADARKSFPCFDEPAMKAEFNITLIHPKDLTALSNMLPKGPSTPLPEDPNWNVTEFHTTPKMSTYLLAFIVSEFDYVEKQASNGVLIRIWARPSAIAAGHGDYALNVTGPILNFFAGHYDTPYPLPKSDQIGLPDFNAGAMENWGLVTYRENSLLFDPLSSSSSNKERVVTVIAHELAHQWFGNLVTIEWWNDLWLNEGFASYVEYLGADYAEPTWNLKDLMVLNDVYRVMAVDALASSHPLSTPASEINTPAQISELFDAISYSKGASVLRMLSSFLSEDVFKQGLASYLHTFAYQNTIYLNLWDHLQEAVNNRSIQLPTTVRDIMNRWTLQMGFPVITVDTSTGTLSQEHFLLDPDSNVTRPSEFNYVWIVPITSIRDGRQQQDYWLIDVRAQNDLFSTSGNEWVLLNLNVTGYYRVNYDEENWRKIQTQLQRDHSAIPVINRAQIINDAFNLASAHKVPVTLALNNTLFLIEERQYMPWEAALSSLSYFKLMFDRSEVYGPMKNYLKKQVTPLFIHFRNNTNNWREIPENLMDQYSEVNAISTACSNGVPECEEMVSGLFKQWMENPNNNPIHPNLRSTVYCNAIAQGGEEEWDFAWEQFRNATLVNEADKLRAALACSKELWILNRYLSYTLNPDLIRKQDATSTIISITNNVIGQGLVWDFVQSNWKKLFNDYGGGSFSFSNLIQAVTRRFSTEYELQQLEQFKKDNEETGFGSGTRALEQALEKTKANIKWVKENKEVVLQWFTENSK

Row | Molecule | binding after CD13 knockout in THP-1 [1] | recognition of patient-derived AML cells [2] | binding to Jurkat cells (Jurkat cells) | binding to other AML cell lines [3] | binding to THP-1 cells (THP-1 cells [4]) | binding to K562 cells (K562 cells) | binding to cells transfected with human CD13 [5] | killing of target cells after CD13 knockout (CD13-/- THP-1 cell lines) | switch-triggered killing of THP-1 cells by sCAR T cells (THP-1 cells [6]) | binding to BON cells (BON cells) | binding to QGP1 cells (QGP1 cells)
1 | Nb163: THP-1 specific llama nanobody binding CD13, SEQ ID NO: 24 (protein, VHH163) VHH: AAQAAQVQLQESGGGLVQPGGSLRLSCVPSGFTFDGYLIGWFRQAPGSERKAVSCISVNGDRTNYADSVKGRFTISRDNAKNTVYLQMNSLRPNDTAIYYCATRRGNRLYNNNCPYFEYGTWGQGTQVTVSSAA | CD13 knockout abrogated the binding | detected the CD13 expression on the primary AML cells | but not Jurkat or K562 cells | also bound other AML cell lines like HL60, NB4, and U937 | specifically bound THP-1 cells | but not Jurkat or K562 cells | bound the cells transfected with human full length aminopeptidase N | diminished the killing of Nb163 to the targets significantly, but cannot abrogated the effect completely | – | – | –
2 | Nb157: THP-1 specific llama nanobody binding CD13, SEQ ID NO: 19 (protein, VHH157) VHH: AAQAAQVQLQESGGGLVQPGGSLSLSCTASGFTFSSYSMAWVRQAPGKGPEWVSGIYPSDGKTRYADFVKGRFSISRDNAKNMLYLQMNNLEPEDTALYYCARGITGLGPRGQGTQVTVSSAA | CD13 knockout abrogated the binding | detected the CD13 expression on the primary AML cells | but not Jurkat or K562 cells | also bound other AML cell lines like HL60, NB4, and U937 | specifically bound THP-1 cells | but not Jurkat or K562 cells | bound the cells transfected with human full length aminopeptidase N | – | – | – | –
3 | Nb157-N-PNE: Nb157 with N-terminal PNE; inducible nanobody switch (protein, left off: small tags and cut ends, Nb157 with N-terminal PNE; inducible nanobody switch) AAQAAQVQLQESGGGLVQPGGSLSLSCTASGFTFSSYSMAWVRQAPGKGPEWVSGIYPSDGKTRYADFVKGRFSISRDNAKNMLYLQMNNLEPEDTALYYCARGITGLGPRGQGTQVTVSSAA | – | – | – | – | – | – | – | – | slightly reduced the cytolysis-inducing activity | – | –
4 | VLV: VHH1 homodimer connected by a linker (protein, left off: small tags and cut ends, VHH1 homodimer connected by a linker) VHH 1: QVQLQESGGGLVQPGGSTRLSCVSSRTFSYYDMGWFRQAPGKEREFVALLSWNGENAEYSDSVMGRFTVSRGNTQNSVNLQMNNLKPEDTGIYYCAVTHGGARSVRSWGQGTQVTVSS VHH 2: QVQLQESGGGLVQPGGSTRLSCVSSRTFSYYDMGWFRQAPGKEREFVALLSWNGENAEYSDSVMGRFTVSRGNTQNSVNLQMNNLKPEDTGIYYCAVTHGGARSVRSWGQGTQVTVSS | – | – | – | – | – | – | – | – | – | bound to BON cells | but not QGP1 cells
